Laboratory results reported in patent US20250263440A1, “CD38-BINDING AGENTS AND USES THEREOF” (PeptiDream Inc., priority 2019, published 2025).
Where two headings read alike, the source gives them in different places. Blank lines part the entries; values can stand above or below the molecule they belong to. Positions of bridges follow the written chain, without caps; N, C: chain ends. Non-standard residues stand in square brackets, D forms with d. Residues, ends and D or L forms follow the SMILES beside them. No end group written: not given here. PEG12 = NCCOCCOCCOCCOCCOCCOCCOCCOCCOCCOCCOCCOCCC(=O)O; Bip = N[C@@H](Cc1ccc(-c2ccccc2)cc1)C(=O)O; NMeF = CN[C@@H](Cc1ccccc1)C(=O)O; Ahp(2) = CCCCC[C@H](N)C(=O)O; PEG4 = NCCOCCOCCOCCOCCC(=O)O

Columns and labels:
CD38 [1] = target: T1, CD38 (Homo sapiens, UniProt P28907); assay: SPR assay (BIACORE T200, Sensor Chip CM3, single-cycle kinetics) of binding to immobilized CD38; settings: for Kd: pegylated compounds, SPR as in Example 2; for kon / koff: SPR Biacore T200, CM3 chip, HBS-EP with 1% DMSO; for kon: read-out: Ka (association rate constant); for koff: read-out: Kd (dissociation rate constant)
T1 construct: purchased R&D Systems
Method: (§1) One of many useful technology for assessing CD38 binding is surface plasmon resonance (SPR). For example, the binding constant of I-1 (SEQ ID NO. 1; same as below) and I-2 (SEQ ID NO. 2; same as below) to CD38 was analyzed by a SPR assay using BIACORE T200 (cytiva: Former GE Healthcare). After the equilibration of Series S Sensor Chip CM3 (produced by cytiva: Former GE Healthcare) with Running Buffer (HBS-EP with 1% (v/v) DMSO), an EDC/NHS mixture was injected at a flow rate of […] for 4 minutes to thereby activate the functional groups on sensor chip. CD38 in 10 mM Acetate (pH5.5) was injected immobilized to at a flow rate of 5 L/min. For 4 minutes to immobilize the CD38 on the substrate surfaces of the sensor chip. Then Ethanolamine was injected at a flow rate of […] for 4 minutes. 1.0 M Ethanolamine (aq.) was injected at a flow rate of […] for 420 seconds for capping. 10 mM Peptides in DMSO were diluted to obtain 10 uM with Running Buffer, and prepared 100 nM, 50 nM, 25 nM, 10 nM, 5 nM of each peptide solutions (Peptide Samples).
(§2) Using these Peptide Samples, kinetics of peptides against CD38 was measured. The method adopted for sample measurement was a single-cycle kinetics method. The analysis was conducted using the evaluation software provided with Biacore T200. A DMSO correction curve obtained by solvent correction measurements was applied for the analysis. Kinetics fitting was done on the difference data obtained by subtracting the baseline data from sample measurement data.
(§3) KD values were calculated based on the association rate constant (ka) and dissociation rate constant (kd).
The binding constant of pegylated compounds was analyzed by a surface plasmon resonance as in the Example −2.

CD38 [2] = target: T1, CD38; assay: ELISA binding assay of I-1 / I-2 sequence variants to CD38
Method: Recombinant human CD38 proteins were purchased from R&D Systems. In some embodiments, the following codons were used. ClAc-Ala: N-Chloroacetyl-L-alanine; MePhe: N-Methyl-L-phenylalanine; MeGly: N-Methyl-glycine; Ahp: (S)-2-aminoheptanoic acid; Bph: (S)-3-([1,1′-biphenyl]-4-yl)-2-aminopropanoic acid.
A number of compounds having similar structures to compound I-1 (difference being amino acid sequence) were prepared and assessed in an ELISA assay. The first sequence is of I-1, and SEQ ID.NO.1.
A number of compounds having similar structures to compound I-2 (difference being amino acid sequence) were prepared and assessed in an ELISA assay. The first sequence is of I-2, and SEQ ID NO. 2.

[3] = target: T2, Recombinant human CD38 protein (R&D Systems) (human, UniProt P28907 43-300); assay: SPR (Biacore T200), single-cycle kinetics, CD38 immobilised on CM3 chip, 1:1 Binding model, 25 °C; figure legend names I-1 and the panel matches Table 4 (2.3*10^-9, rounded there)
Method: as §1, with “For example, the binding constant of I-1 (SEQ ID NO. 1; same as below) and I-2 (SEQ ID NO. 2; same as below) to CD38 was analyzed by a SPR assay using BIACORE T200 (cytiva: Former GE Healthcare).” left out
as §2, with “Kinetics fitting was done on the difference data obtained by subtracting the baseline data from sample measurement data.” left out
as §3

[4] = target: T2, Recombinant human CD38 protein (R&D …); assay: ELISA
[5] = target: T2, Recombinant human CD38 protein (R&D …); assay: SPR (Biacore T200), single-cycle kinetics, CD38 immobilised on CM3 chip, 1:1 Binding model, 25 °C; figure legend names I-1; Table 4 prints 1.8*10^-3 for this constant
Method: as §1, with “For example, the binding constant of I-1 (SEQ ID NO. 1; same as below) and I-2 (SEQ ID NO. 2; same as below) to CD38 was analyzed by a SPR assay using BIACORE T200 (cytiva: Former GE Healthcare).” left out
as §2, with “Kinetics fitting was done on the difference data obtained by subtracting the baseline data from sample measurement data.” left out
as §3

[6] = target: T2, Recombinant human CD38 protein (R&D …); assay: SPR (Biacore T200), CD38 immobilised on CM3 chip, single-cycle kinetics
Method: as §1, with “For example, the binding constant of I-1 (SEQ ID NO. 1; same as below) and I-2 (SEQ ID NO. 2; same as below) to CD38 was analyzed by a SPR assay using BIACORE T200 (cytiva: Former GE Healthcare).” left out
as §2, with “Kinetics fitting was done on the difference data obtained by subtracting the baseline data from sample measurement data.” left out
as §3

[7] = target: T2, Recombinant human CD38 protein (R&D …); assay: SPR (Biacore T200), single-cycle kinetics, CD38 immobilised on CM3 chip, 1:1 Binding model, 25 °C; figure legend names I-1 and the panel matches Table 4 (7.7*10^5, rounded there)
Method: as §1, with “For example, the binding constant of I-1 (SEQ ID NO. 1; same as below) and I-2 (SEQ ID NO. 2; same as below) to CD38 was analyzed by a SPR assay using BIACORE T200 (cytiva: Former GE Healthcare).” left out
as §2, with “Kinetics fitting was done on the difference data obtained by subtracting the baseline data from sample measurement data.” left out
as §3

[8] = target: T2, Recombinant human CD38 protein (R&D …); assay: ELISA; remark: listed apart in the source
[9] = target: T2, Recombinant human CD38 protein (R&D …); assay: SPR (Biacore T200), single-cycle kinetics, CD38 immobilised on CM3 chip, 1:1 Binding model, 25 °C; figure legend names I-2 and the panel matches Table 4 (3.6*10^5, rounded there)
Method: as §1, with “For example, the binding constant of I-1 (SEQ ID NO. 1; same as below) and I-2 (SEQ ID NO. 2; same as below) to CD38 was analyzed by a SPR assay using BIACORE T200 (cytiva: Former GE Healthcare).” left out
as §2, with “Kinetics fitting was done on the difference data obtained by subtracting the baseline data from sample measurement data.” left out
as §3

[10] = target: T2, Recombinant human CD38 protein (R&D …); assay: SPR (Biacore T200), single-cycle kinetics, CD38 immobilised on CM3 chip, 1:1 Binding model, 25 °C; figure legend names I-2 and the panel matches Table 4 (3.5*10^-8, rounded there)
Method: as §1, with “For example, the binding constant of I-1 (SEQ ID NO. 1; same as below) and I-2 (SEQ ID NO. 2; same as below) to CD38 was analyzed by a SPR assay using BIACORE T200 (cytiva: Former GE Healthcare).” left out
as §2, with “Kinetics fitting was done on the difference data obtained by subtracting the baseline data from sample measurement data.” left out
as §3

[11] = target: T2, Recombinant human CD38 protein (R&D …); assay: SPR (Biacore T200), single-cycle kinetics, CD38 immobilised on CM3 chip, 1:1 Binding model, 25 °C; figure legend names I-2 and the panel matches Table 4 (1.3*10^-2, rounded there)
Method: as §1, with “For example, the binding constant of I-1 (SEQ ID NO. 1; same as below) and I-2 (SEQ ID NO. 2; same as below) to CD38 was analyzed by a SPR assay using BIACORE T200 (cytiva: Former GE Healthcare).” left out
as §2, with “Kinetics fitting was done on the difference data obtained by subtracting the baseline data from sample measurement data.” left out
as §3

[12] = compounds similar to I-2, larger values indicate stronger binding
[13] = compounds similar to I-1, larger values indicate stronger binding

Molecule: A L H A V L P Bph V W V C: compound of similar structure to I-2, difference being amino acid sequence: Ala at position 4 (ALHAVLP[Bip]VWVC; not fully specified (N-terminus, bridges))
Binding Assay (CD38 [2]; [12]): 0.10

Molecule: A L H MeF V L P A V W V C: compound of similar structure to I-2, difference being amino acid sequence: Ala at position 8 (VLPAVWVC; not fully specified (N-terminus, bridges))
Binding Assay (CD38 [2]; [12]): 0.09

Molecule: A A Ahp Y H D G V L Bph Ahp D C: compound of similar structure to I-1, difference being amino acid sequence: Ala at position 2 (YHDGVL[Bip][Ahp(2)]DC; not fully specified (N-terminus, bridges))
Binding Assay (CD38 [2]; [13]): 0.60

Molecule: A R Ahp Y A D G V L Bpb Ahp D C: compound of similar structure to I-1, difference being amino acid sequence: Ala at position 5 (YADGVL; not fully specified (N-terminus, C-terminus, bridges))
Binding Assay (CD38 [2]; [13]): 0.28

Molecule: A R A Y H D G V L Bph Ahp D C: compound of similar structure to I-1, difference being amino acid sequence: Ala at position 3 (ARAYHDGVL[Bip][Ahp(2)]DC; not fully specified (N-terminus, bridges))
Binding Assay (CD38 [2]; [13]): 0.11

Molecule: A R Ahp A H D G V L Bph Ahp D C: compound of similar structure to I-1, difference being amino acid sequence: Ala at position 4 (AHDGVL[Bip][Ahp(2)]DC; not fully specified (N-terminus, bridges))
Binding Assay (CD38 [2]; [13]): 0.11

B1: Compound I-1 (SEQ ID NO. 1) (peptide)
peptide: {CH2CO}-AR[Ahp(2)]YHDGVL[Bip][Ahp(2)]DC
modifications: thioether N-13
notes: Ala Arg Ahp Tyr His Asp Gly Val Leu Bph Ahp Asp Cys
Kd [3]: 2.27 nM
Binding Assay (larger values indicate stronger binding) [4]: 1.97
koff [5]: 0.00175 s⁻¹
Kd [6]: 2.3 nM
kon [7]: 769000 M⁻¹ s⁻¹

B2: Compound I-2 (SEQ ID NO. 2) (peptide)
peptide: ALHXVLPXVWVC
modifications: not fully specified; MePhe (N-methyl-L-phenylalanine) at 4; Bph at 8; cyclic peptide (N-terminal ClAc-Ala cyclised with the C-terminal Cys), structure given as a drawing
notes: Printed as Ala Leu His MePhe Val Leu Pro Bph Val Trp Val Cys
Binding Assay (larger values indicate stronger binding) [8]: 1.69
Kd [6]: 35 nM
kon [9]: 358000 M⁻¹ s⁻¹
Kd [10]: 35.4 nM
koff [11]: 0.0127 s⁻¹

Further lines, results first:

Kd (CD38 [1]): 11.7 nM
Molecule: CC(C)C[C@@H]1NC(=O)[C@H](C)NC(=O)CSC[C@@H](C(=O)NCCOCCOCCOCCOCCOCCOCCOCCOCCOCCOCCOCCOCCC(=O)N[C@@H](CCCCN)C(N)=O)NC(=O)[C@H](C(C)C)NC(=O)[C@H](Cc2c[nH]c3ccccc23)NC(=O)[C@H](C(C)C)NC(=O)[C@H](Cc2ccc(-c3ccccc3)cc2)NC(=O)[C@@H]2CCCN2C(=O)[C@H](CC(C)C)NC(=O)[C@H](C(C)C)NC(=O)[C@H](Cc2ccccc2)N(C)C(=O)[C@H](Cc2c[nH]cn2)NC1=O [I-6] ({CH2CO}-ALH[NMeF]VLP[Bip]VWVC[PEG12]K-NH2; thioether N-12)

Kd (CD38 [1]): 10.5 nM
Molecule: CC(C)C[C@@H]1NC(=O)[C@H](C)NC(=O)CSC[C@@H](C(=O)NCCOCCOCCOCCOCCC(=O)N[C@@H](CCCCN)C(N)=O)NC(=O)[C@H](C(C)C)NC(=O)[C@H](Cc2c[nH]c3ccccc23)NC(=O)[C@H](C(C)C)NC(=O)[C@H](Cc2ccc(-c3ccccc3)cc2)NC(=O)[C@@H]2CCCN2C(=O)[C@H](CC(C)C)NC(=O)[C@H](C(C)C)NC(=O)[C@H](Cc2ccccc2)N(C)C(=O)[C@H](Cc2c[nH]cn2)NC1=O [I-5] ({CH2CO}-ALH[NMeF]VLP[Bip]VWVC[PEG4]K-NH2; thioether N-12)

Binding Assay (CD38 [2]; [12]): 1.69
kon (CD38 [1]): 360000 M⁻¹ s⁻¹
koff (CD38 [1]): 0.013 s⁻¹
Molecule: CC(C)C[C@@H]1NC(=O)[C@H](C)NC(=O)CSC[C@@H](C(N)=O)NC(=O)[C@H](C(C)C)NC(=O)[C@H](Cc2c[nH]c3ccccc23)NC(=O)[C@H](C(C)C)NC(=O)[C@H](Cc2ccc(-c3ccccc3)cc2)NC(=O)[C@@H]2CCCN2C(=O)[C@H](CC(C)C)NC(=O)[C@H](C(C)C)NC(=O)[C@H](Cc2ccccc2)N(C)C(=O)[C@H](Cc2c[nH]cn2)NC1=O [I-2] ({CH2CO}-ALH[NMeF]VLP[Bip]VWVC-NH2; thioether N-12)

Binding Assay (CD38 [2]; [13]): 1.97
kon (CD38 [1]): 770000 M⁻¹ s⁻¹
koff (CD38 [1]): 0.0018 s⁻¹
Molecule: CCCCC[C@@H]1NC(=O)[C@H](CCCNC(=N)N)NC(=O)[C@H](C)NC(=O)CSC[C@@H](C(N)=O)NC(=O)[C@H](CC(=O)O)NC(=O)[C@H](CCCCC)NC(=O)[C@H](Cc2ccc(-c3ccccc3)cc2)NC(=O)[C@H](CC(C)C)NC(=O)[C@H](C(C)C)NC(=O)CNC(=O)[C@H](CC(=O)O)NC(=O)[C@H](Cc2c[nH]cn2)NC(=O)[C@H](Cc2ccc(O)cc2)NC1=O [I-1]

Kd (CD38 [1]): 4.3 nM
Molecule: CCCCC[C@@H]1NC(=O)[C@H](CCCNC(=N)N)NC(=O)[C@H](C)NC(=O)CSC[C@@H](C(=O)NCCOCCOCCOCCOCCOCCOCCOCCOCCOCCOCCOCCOCCC(=O)N[C@@H](CCCCN)C(N)=O)NC(=O)[C@H](CC(=O)O)NC(=O)[C@H](CCCCC)NC(=O)[C@H](Cc2ccc(-c3ccccc3)cc2)NC(=O)[C@H](CC(C)C)NC(=O)[C@H](C(C)C)NC(=O)CNC(=O)[C@H](CC(=O)O)NC(=O)[C@H](Cc2c[nH]cn2)NC(=O)[C@H](Cc2ccc(O)cc2)NC1=O [I-4]
